Columns and labels:
crystal structure = molecular target: the molecule itself; assay: crystal structure
Ucc1-Skp1(FL) complex = Ucc1-Skp1(FL) complex (S. cerevisiae, UniProt Q05947 1-369; P52286 1-194); assay: pull-down
Sequence of Ucc1-Skp1(FL) complex (Q05947 whole entry, chain 1 of 2): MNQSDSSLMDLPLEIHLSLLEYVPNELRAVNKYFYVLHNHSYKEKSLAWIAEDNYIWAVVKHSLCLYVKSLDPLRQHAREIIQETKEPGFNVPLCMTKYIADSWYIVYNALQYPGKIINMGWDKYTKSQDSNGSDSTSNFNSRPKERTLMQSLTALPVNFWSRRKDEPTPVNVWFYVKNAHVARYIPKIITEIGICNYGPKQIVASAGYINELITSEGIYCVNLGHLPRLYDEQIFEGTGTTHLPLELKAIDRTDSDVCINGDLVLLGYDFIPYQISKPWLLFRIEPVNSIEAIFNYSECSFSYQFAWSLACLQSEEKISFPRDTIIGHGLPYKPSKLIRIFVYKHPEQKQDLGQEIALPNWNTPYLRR
Sequence of Ucc1-Skp1(FL) complex (P52286 whole entry, chain 2 of 2): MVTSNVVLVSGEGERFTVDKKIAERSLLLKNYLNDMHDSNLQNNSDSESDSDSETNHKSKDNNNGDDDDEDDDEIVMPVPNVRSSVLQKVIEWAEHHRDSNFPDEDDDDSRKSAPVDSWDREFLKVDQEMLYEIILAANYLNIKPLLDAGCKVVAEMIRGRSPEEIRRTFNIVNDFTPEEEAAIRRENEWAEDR

| Binder | stoichiometry N (crystal structure) | binding result (Ucc1-Skp1(FL) complex) |
| --- | --- | --- |
| Cit2 (full-length, HisSUMO1-tag cleaved) (enzyme, S. cerevisiae, UniProt P08679 1-460, looked up) MTVPYLNSNRNVASYLQSNSSQEKTLKERFSEIYPIHAQDVRQFVKEHGKTKISDVLLEQVYGGMRGIPGSVWEGSVLDPEDGIRFRGRTIADIQKDLPKAKGSSQPLPEALFWLLLTGEVPTQAQVENLSADLMSRSELPSHVVQLLDNLPKDLHPMAQFSIAVTALESESKFAKAYAQGISKQDYWSYTFEDSLDLLGKLPVIAAKIYRNVFKDGKMGEVDPNADYAKNLVNLIGSKDEDFVDLMRLYLTIHSDHEGGNVSAHTSHLVGSALSSPYLSLASGLNGLAGPLHGRANQEVLEWLFALKEEVNDDYSKDTIEKYLWDTLNSGRVIPGYGHAVLRKTDPRYMAQRKFAMDHFPDYELFKLVSSIYEVAPGVLTEHGKTKNPWPNVDAHSGVLLQYYGLKESSFYTVLFGVSRAFGILAQLITDRAIGASIERPKSYSTEKYKELVKNIESKL | 2 | – |
| MBP-Cit1(Δ1–37) (enzyme, S. cerevisiae, UniProt P00890 38-479, looked up) SSASEQTLKERFAEIIPAKAEEIKKFKKEHGKTVIGEVLLEQAYGGMRGIKGLVWEGSVLDPEEGIRFRGRTIPEIQRELPKAEGSTEPLPEALFWLLLTGEIPTDAQVKALSADLAARSEIPEHVIQLLDSLPKDLHPMAQFSIAVTALESESKFAKAYAQGVSKKEYWSYTFEDSLDLLGKLPVIASKIYRNVFKDGKITSTDPNADYGKNLAQLLGYENKDFIDLMRLYLTIHSDHEGGNVSAHTTHLVGSALSSPYLSLAAGLNGLAGPLHGRANQEVLEWLFKLREEVKGDYSKETIEKYLWDTLNAGRVVPGYGHAVLRKTDPRYTAQREFALKHFPDYELFKLVSTIYEVAPGVLTKHGKTKNPWPNVDSHSGVLLQYYGLTEASFYTVLFGVARAIGVLPQLIIDRAVGAPIERPKSFSTEKYKELVKKIESKN | – | binds |

— publication PMC10104474 (Science Advances, 2023)
